Assay results published in article PMC3656419 (Journal of molecular biology, 2008).

Assays:
[1] = molecular target: the molecule itself; assay: SEC
[2] = molecular target: the molecule itself; assay: AUC
[3] = molecular target: the molecule itself; assay: crystal structure

| Protein | stoichiometry N [1] | stoichiometry N [2] | stoichiometry N [3] |
| --- | --- | --- | --- |
| native EcMenD (Escherichia coli 2-succinyl-5-enolpyruvyl-6-hydroxy-3-cyclohexadiene-1-carboxylate synthase), N-terminal hexahistidine-tagged (enzyme, E. coli (K12), UniProt P17109 1-556, looked up) MSVSAFNRRWAAVILEALTRHGVRHICIAPGSRSTPLTLAAAENSAFIHHTHFDERGLGHLALGLAKVSKQPVAVIVTSGTAVANLYPALIEAGLTGEKLILLTADRPPELIDCGANQAIRQPGMFASHPTHSISLPRPTQDIPARWLVSTIDHALGTLHAGGVHINCPFAEPLYGEMDDTGLSWQQRLGDWWQDDKPWLREAPRLESEKQRDWFFWRQKRGVVVAGRMSAEEGKKVALWAQTLGWPLIGDVLSQTGQPLPCADLWLGNAKATSELQQAQIVVQLGSSLTGKRLLQWQASCEPEEYWIVDDIEGRLDPAHHRGRRLIANIADWLELHPAEKRQPWCVEIPRLAEQAMQAVIARRDAFGEAQLAHRICDYLPEQGQLFVGNSLVVRLIDALSQLPAGYPVYSNRGASGIDGLLSTAAGVQRASGKPTLAIVGDLSALYDLNALALLRQVSAPLVLIVVNNNGGQIFSLLPTPQSERERFYLMPQNVHFEHAAAMFELKYHRPQNWQELETAFADAWRTPTTTVIEMVVNDTDGAQTLQQLLAQVSHL | 2 | – | – |
| SeMet EcMenD (selenomethionine derivative of Escherichia coli MenD, histidine tag removed by proteolysis) (enzyme, E. coli (K12), selenomethionine in place of methionine (full incorporation of SeMet)) GHMSVSAFNRRWAAVILEALTRHGVRHICIAPGSRSTPLTLAAAENSAFIHHTHFDERGLGHLALGLAKVSKQPVAVIVTSGTAVANLYPALIEAGLTGEKLILLTADRPPELIDCGANQAIRQPGMFASHPTHSISLPRPTQDIPARWLVSTIDHALGTLHAGGVHINCPFAEPLYGEMDDTGLSWQQRLGDWWQDDKPWLREAPRLESEKQRDWFFWRQKRGVVVAGRMSAEEGKKVALWAQTLGWPLIGDVLSQTGQPLPCADLWLGNAKATSELQQAQIVVQLGSSLTGKRLLQWQASCEPEEYWIVDDIEGRLDPAHHRGRRLIANIADWLELHPAEKRQPWCVEIPRLAEQAMQAVIARRDAFGEAQLAHRICDYLPEQGQLFVGNSLVVRLIDALSQLPAGYPVYSNRGASGIDGLLSTAAGVQRASGKPTLAIVGDLSALYDLNALALLRQVSAPLVLIVVNNNGGQIFSLLPTPQSERERFYLMPQNVHFEHAAAMFELKYHRPQNWQELETAFADAWRTPTTTVIEMVVNDTDGAQTLQQLLAQVSHL | 2 | 3 | 4 |
